Experimental findings from US20250230251A1 (Bristol-Myers Squibb, published 2025) are described below.

Experiment [1] concerns the target T1, huIL-18Rβ-HisAvi (human, UniProt O95256 20-356, biotinylated in the Octet blocking assay).
T1 construct: Soluble analyte in all SPR runs; captured on streptavidin sensors in the Octet assay; also called human IL-18Rβ; human IL-18Rβ-Avi-His
T1 sequence: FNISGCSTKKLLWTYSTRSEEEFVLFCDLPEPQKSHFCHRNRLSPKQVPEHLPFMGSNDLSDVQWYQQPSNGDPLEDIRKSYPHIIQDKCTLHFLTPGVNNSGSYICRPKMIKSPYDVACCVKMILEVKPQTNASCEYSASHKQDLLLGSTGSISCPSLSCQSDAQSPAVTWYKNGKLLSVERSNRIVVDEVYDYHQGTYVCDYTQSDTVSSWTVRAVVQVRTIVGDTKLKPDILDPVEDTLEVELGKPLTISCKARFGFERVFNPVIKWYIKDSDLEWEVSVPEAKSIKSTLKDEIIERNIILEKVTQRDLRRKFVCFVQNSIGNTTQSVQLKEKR
As to the kind of experiment: SPR Biacore T200, mAb captured on anti-human Fc, huIL-18Rβ-HisAvi as analyte, PBST pH 5.5, 37 °C, 1:1 Binding fit. (SPR reads the build-up and loss of mass on a sensor chip optically.)

Experiment [2] concerns the target T2, human IL-18Rβ on cells (human, UniProt O95256 20-599).
T2 sequence: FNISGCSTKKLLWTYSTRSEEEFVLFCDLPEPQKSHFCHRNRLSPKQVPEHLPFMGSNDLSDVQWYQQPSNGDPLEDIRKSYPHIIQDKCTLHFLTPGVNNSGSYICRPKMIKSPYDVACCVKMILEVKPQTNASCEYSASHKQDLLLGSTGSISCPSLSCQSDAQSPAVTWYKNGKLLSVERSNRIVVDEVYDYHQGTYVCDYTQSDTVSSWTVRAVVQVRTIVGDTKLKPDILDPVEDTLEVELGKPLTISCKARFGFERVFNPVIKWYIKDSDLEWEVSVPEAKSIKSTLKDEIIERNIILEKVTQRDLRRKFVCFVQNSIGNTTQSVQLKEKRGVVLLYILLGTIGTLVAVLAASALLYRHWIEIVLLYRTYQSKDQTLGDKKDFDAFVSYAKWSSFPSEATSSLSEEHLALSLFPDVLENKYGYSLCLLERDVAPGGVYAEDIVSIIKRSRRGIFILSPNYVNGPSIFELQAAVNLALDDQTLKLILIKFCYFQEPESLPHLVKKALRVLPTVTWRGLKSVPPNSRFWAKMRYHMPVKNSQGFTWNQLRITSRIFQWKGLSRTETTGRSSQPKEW
The experiment can be described thus: cell-based or functional assay.

The target of experiment [3] is T1, huIL-18Rβ-HisAvi. The experiment can be described thus: SPR T200, pH 7; sample 4 w 4C.

B1: P20 (antibody, human IgG1, kappa)
heavy: QVQLQQSGPGLVKPSETLSLTCTVSGGSINNYYWSWIRQPPGKGLEWIGYIFYSGTTNYNPSLKSRVTISVDTSKNQFSLKLSSVTAADTAVYYCARDVGIAARNSYYYVMDVWGQGTTVTVSSASTKGPSVFPLAPSSKSTSGGTAALGCLVKDYFPEPVTVSWNSGALTSGVHTFPAVLQSSGLYSLSSVVTVPSSSLGTQTYICNVNHKPSNTKVDKRVEPKSCDKTHTCPPCPAPEAEGAPSVFLFPPKPKDTLMISRTPEVTCVVVDVSHEDPEVKFNWYVDGVEVHNAKTKPREEQYNSTYRVVSVLTVLHQDWLNGKEYKCKVSNKALPAPIEKTISKAKGQPREPQVYTLPPSREEMTKNQVSLTCLVKGFYPSDIAVEWESNGQPENNYKTTPPVLDSDGSFFLYSKLTVDKSRWQQGNVFSCSVMHEALHNHYTQKSLSLSPG
light: AIQLTQSPSSLSASVGDRVTITCRASQGISSALAWYQQKPGKAPKFLIYDASSLESGVPSRFSGSGSGTDFTLTISSLQPEDFATYYCQQFNSYPITFGQGTRLEIKRTVAAPSVFIFPPSDEQLKSGTASVVCLLNNFYPREAKVQWKVDNALQSGNSQESVTEQDSKDSTYSLSSTLTLSKADYEKHKVYACEVTHQGLSSPVTKSFNRGEC
notes: Human IgG
For the molecule B1, in experiment [1], the “apparent Kd (pooled screen)” value stood at 2.56 nM, the “apparent koff (pooled screen)” value is 0.000282 s⁻¹ and the “apparent kon (pooled screen)” value amounted to 110000 M⁻¹ s⁻¹.

B2: P20-V1 (antibody, human IgG1, kappa, V domains shown)
VH: QVQLQESGPGLVKPSETLSLTCTVSGGSINNYYWSWIRQPPGKGLEWIGYIFYSGTTNYNPSLKSRVTISVDTSKNQFSLKLSSVTAADTAVYYCARDVGIAARNSYYYVMDVWGQGTTVTVSS
VL: AIQLTQSPSSLSASVGDRVTITCRASQGISSALAWYQQKPGKAPKFLIYEASSLESGVPSRFSGSGSGTDFTLTISSLQPEDFATYYCQQFNSYPITFGQGTRLEIKR
notes: Variant of P20
What is called Kd is the free concentration of one partner at which half of the binding sites on the other are occupied at equilibrium, for simple one-to-one binding. One may read the koff as a measure of how fast the partners let go of each other. Low values mean slow dissociation, high ones fast dissociation. As a reminder, the kon is the rate constant with which the complex forms. A low value points to slower complex formation. Turning to B2, in experiment [2], the “IC50, IL-18-mediated IFNg release, KG-1 cells, Average” value stood at 2.01 nM; the “IC50, IL-18-mediated IFNg release, KG-1 cells, Exp. #1” value was found to be 0.96 nM; the “IC50, IL-18-mediated IFNg release, KG-1 cells, Exp. #2” value was found to be 2.1 nM; the “IC50, IL-18-mediated IFNg release, KG-1 cells, Exp. #3” value stood at 1.46 nM. For the same molecule, in experiment [2], the “IC50, IL-18-mediated IFNg release, KG-1 cells, Exp. #4” value was 1.2 nM; the “IC50, IL-18-mediated IFNg release, KG-1 cells, Exp. #5” value turned out to be 2.94 nM; the “IC50, IL-18-mediated IFNg release, KG-1 cells, Exp. #6” value was found to be 2.8 nM; the “IC50, IL-18-mediated IFNg release, KG-1 cells, Exp. #7” value amounted to 2.6 nM. Besides, in experiment [3], the affinity, expressed as Kd, was 0.2 nM; the koff amounted to 5.7e-05 s⁻¹; the kon was found to be 280000 M⁻¹ s⁻¹.
